The target of test [1] is Enterococcus faecalis FabN dehydratase/isomerase, hexahistidine-tagged (Enterococcus faecalis (strain FA2-2)). Nature of the test: SEC.
Test [2] has as its target Enterococcus faecalis FabO 3-ketoacyl-ACP synthase I, hexahistidine-tagged (Enterococcus faecalis (strain FA2-2)). Briefly: SEC.

In the case of “Enterococcus faecalis FabN dehydratase/isomerase, hexahistidine-tagged (enzyme)”, in test [1], the stoichiometry N came to 6.

Consider “Enterococcus faecalis FabO 3-ketoacyl-ACP synthase I, hexahistidine-tagged (enzyme)”, for which, in test [2], the stoichiometry N worked out at 2.
